Reference: article PMC2148210 (The Journal of Cell Biology, 1999)

Biological target: microtubules assembled from bovine brain phosphocellulose-tubulin with taxol (bovine, UniProt Q6B856 1-445)
Assay: co-sedimentation

Chain of microtubules assembled from bovine brain phosphocellulose-tubulin with taxol (Q6B856 whole entry, looked up): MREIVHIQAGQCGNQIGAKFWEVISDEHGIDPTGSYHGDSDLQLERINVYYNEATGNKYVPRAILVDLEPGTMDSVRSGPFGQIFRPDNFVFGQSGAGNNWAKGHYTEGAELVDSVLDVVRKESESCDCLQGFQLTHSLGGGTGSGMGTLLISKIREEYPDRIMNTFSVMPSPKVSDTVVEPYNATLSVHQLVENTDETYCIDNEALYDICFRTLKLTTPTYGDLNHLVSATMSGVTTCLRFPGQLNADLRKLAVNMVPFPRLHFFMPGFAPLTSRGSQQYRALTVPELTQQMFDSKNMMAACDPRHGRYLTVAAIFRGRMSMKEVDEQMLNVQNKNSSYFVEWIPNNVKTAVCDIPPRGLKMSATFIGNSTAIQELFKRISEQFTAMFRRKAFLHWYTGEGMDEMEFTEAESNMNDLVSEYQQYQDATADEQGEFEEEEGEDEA

B1: GMAP-210 (Golgi microtubule-associated protein 210), endogenous (natural protein, human (endogenous in HeLa), UniProt Q15643 1-1979, looked up)
chain: MSSWLGGLGSGLGQSLGQVGGSLASLTGQISNFTKDMLMEGTEEVEAELPDSRTKEIEAIHAILRSENERLKKLCTDLEEKHEASEIQIKQQSTSYRNQLQQKEVEISHLKARQIALQDQLLKLQSAAQSVPSGAGVPATTASSSFAYGISHHPSAFHDDDMDFGDIISSQQEINRLSNEVSRLESEVGHWRHIAQTSKAQGTDNSDQSEICKLQNIIKELKQNRSQEIDDHQHEMSVLQNAHQQKLTEISRRHREELSDYEERIEELENLLQQGGSGVIETDLSKIYEMQKTIQVLQIEKVESTKKMEQLEDKIKDINKKLSSAENDRDILRREQEQLNVEKRQIMEECENLKLECSKLQPSAVKQSDTMTEKERILAQSASVEEVFRLQQALSDAENEIMRLSSLNQDNSLAEDNLKLKMRIEVLEKEKSLLSQEKEELQMSLLKLNNEYEVIKSTATRDISLDSELHDLRLNLEAKEQELNQSISEKETLIAEIEELDRQNQEATKHMILIKDQLSKQQNEGDSIISKLKQDLNDEKKRVHQLEDDKMDITKELDVQKEKLIQSEVALNDLHLTKQKLEDKVENLVDQLNKSQESNVSIQKENLELKEHIRQNEEELSRIRNELMQSLNQDSNSNFKDTLLKEREAEVRNLKQNLSELEQLNENLKKVAFDVKMENEKLVLACEDVRHQLEECLAGNNQLSLEKNTIVETLKMEKGEIEAELCWAKKRLLEEANKYEKTIEELSNARNLNTSALQLEHEHLIKLNQKKDMEIAELKKNIEQMDTDHKETKDVLSSSLEEQKQLTQLINKKEIFIEKLKERSSKLQEELDKYSQALRKNEILRQTIEEKDRSLGSMKEENNHLQEELERLREEQSRTAPVADPKTLDSVTELASEVSQLNTIKEHLEEEIKHHQKIIEDQNQSKMQLLQSLQEQKKEMDEFRYQHEQMNATHTQLFLEKDEEIKSLQKTIEQIKTQLHEERQDIQTDNSDIFQETKVQSLNIENGSEKHDLSKAETERLVKGIKERELEIKLLNEKNISLTKQIDQLSKDEVGKLTQIIQQKDLEIQALHARISSTSHTQDVVYLQQQLQAYAMEREKVFAVLNEKTRENSHLKTEYHKMMDIVAAKEAALIKLQDENKKLSTRFESSGQDMFRETIQNLSRIIREKDIEIDALSQKCQTLLAVLQTSSTGNEAGGVNSNQFEELLQERDKLKQQVKKMEEWKQQVMTTVQNMQHESAQLQEELHQLQAQVLVDSDNNSKLQVDYTGLIQSYEQNETKLKNFGQELAQVQHSIGQLCNTKDLLLGKLDIISPQLSSASLLTPQSAECLRASKSEVLSESSELLQQELEELRKSLQEKDATIRTLQENNHRLSDSIAATSELERKEHEQTDSEIKQLKEKQDVLQKLLKEKDLLIKAKSDQLLSSNENFTNKVNENELLRQAVTNLKERILILEMDIGKLKGENEKIVETYRGKETEYQALQETNMKFSMMLREKEFECHSMKEKALAFEQLLKEKEQGKTGELNQLLNAVKSMQEKTVVFQQERDQVMLALKQKQMENTALQNEVQRLRDKEFRSNQELERLRNHLLESEDSYTREALAAEDREAKLRKKVTVLEEKLVSSSNAMENASHQASVQVESLQEQLNVVSKQRDETALQLSVSQEQVKQYALSLANLQMVLEHFQQEEKAMYSAELEKQKQLIAEWKKNAENLEGKVISLQECLDEANAALDSASRLTEQLDVKEEQIEELKRQNELRQEMLDDVQKKLMSLANSSEGKVDKVLMRNLFIGHFHTPKNQRHEVLRLMGSILGVRREEMEQLFHDDQGGVTRWMTGWLGGGSKSVPNTPLRPNQQSVVNSSFSELFVKFLETESHPSIPPPKLSVHDMKPLDSPGRRKRDTNAPESFKDTAESRSGRRTDVNPFLAPRSAAVPLINPAGLGPGGPGHLLLKPISDVLPTFTPLPALPDNSAGVVLKDLLKQ
- fold increase of bound protein, sheared against unsheared microtubules: 1.8 fold
